In article PMC8716136:

Biological target: CaMKIIδC-GFP T287A (phosphoresistant) (R. norvegicus)
Assay: FRET or BRET

unlabeled CaM (calmodulin) (from UniProt P0DP23 1-149) (natural protein)
donor fluorescence (FDD) after 5 uM unlabeled CaM, % of initial intensity: 80%
